Columns and labels:
[1] = molecular target: T1, rat insulin receptor (INSR) on CHOK1 cells (rat, UniProt P15127 27-1383); experiment: cell-based or functional assay
[2] = molecular target: T2, cynomolgus insulin receptor (INSR) on CHOK1 cells (cyno, UniProt A0A7N9D6H3 48-1390); experiment: cell-based or functional assay
[3] = molecular target: T3, minipig insulin receptor (INSR) on CHOK1 cells (minipig, UniProt F1SCL0 28-758; F1SCL0 763-1382); experiment: cell-based or functional assay
[4] = molecular target: T4, human insulin receptor (INSR) on CHOK1 cells (human, UniProt P06213 28-1382); experiment: cell-based or functional assay
[5] = molecular target: T5, solubilized human INSR (B isoform) from CHO-hINSR-B cells, without insulin (human, UniProt P06213 28-1382); experiment: SPR (ProteOn XPR36), solubilized INSR-B captured by CT-3 mAb, Fab injected, -insulin
T5 construct: mature; Detergent-solubilized full-length receptor in cell lysate, captured on the SPR chip by its carboxy-terminal part; also called solubilized INSR
Experimental: Kinetic analysis of antibody binding was performed using surface plasmon resonance using the ProteOn™ XPR36 (BioRad, Hercules, Calif.). […] Increasing concentrations of Fab ranging from 3.7-300 nM were injected over the captured receptor to obtain association and dissociation kinetics.

[6] = molecular target: T1, rat insulin receptor (INSR) on CHOK1 …; experiment: flow cytometry on CHOK1 cells expressing the INSR ortholog; Fab, anti-human kappa FITC detection
Experimental: (§1) For Fab staining, cells were stained with a secondary antibody, mouse anti-c-myc IgG (Roche, Basel, Switzerland). After washing twice with FACS buffer, cells were then stained with either goat anti-human IgG Allophycocyanin (Jackson Immuno Research, West Grove, Pa.) (for IgG analysis) or with goat anti-mouse IgG Allophycocyanin (Jackson Immuno Research, West Grove, Pa.) (For Fab analysis) at a 1:100 dilution for 20 minutes at 4° C. Cells were washed twice with FACS buffer and the cells were analyzed on a FACSCanto II™ flow cytometer (Becton Dickinson). Data were analyzed using both FlowJo™ (Tristar, Paso Robles, Calif.) and GraphPad Prism 5 (GraphPad Software, La Jolla, Calif. ).

[7] = molecular target: T2, cynomolgus insulin receptor (INSR) on …; experiment: as above
Experimental: as §1

[8] = molecular target: T3, minipig insulin receptor (INSR) on …; experiment: as above
Experimental: as §1

[9] = molecular target: T4, human insulin receptor (INSR) on CHOK1 …; experiment: as above
Experimental: as §1

[10] = molecular target: T4, human insulin receptor (INSR) on CHOK1 …; experiment: cell-based or functional assay; remark: listed apart in the source
[11] = molecular target: T5, solubilized human INSR (B isoform) from …; experiment: SPR (ProteOn XPR36), solubilized INSR captured by CT-3 mAb, antibody injected, no insulin
Experimental: Briefly, the GLM sensor chip was preconditioned with successive injections of 10 mM SDS, 50 mM NaOH, 100 mM Tris pH 9.5, and running buffer consisting of 10 mM HEPES, 150 mM sodium chloride, 3 mM EDTA, 0.05% Polysorbate 20 (Teknova, #H8022) at a flow rate of 100 μL per min. The chip surface was then activated with a five min injection of a freshly prepared 1:1 solution of 0.1M N-hydroxysuccinimide (NHS) and 0.4 M 1-ethyl-3-(3-dimethylaminopropyl) carbodiimide at a flow rate of 25 μL per min. Following activation, 10 μg/mL of CT-3 antibody in pH 4.5 acetate buffer was injected at a flow rate of 30 μL per min until ˜10,000 RU of the capture antibody was immobilized on the sensor surface. To block the surface, 1 M ethanolamine hydrochloride-NaOH pH 8.5 was injected for five min. Solubilized INSR diluted 1:1 in running buffer supplemented with 1 mg/ml BSA, with or without 1 μg/ml human insulin (Sigma, #A30590), was captured at a density of 1000-1200 RU on a vertical flow channel coated with the CT-3 antibody. […] Association was monitored for 5 min, and dissociation was monitored for 10 min. Surfaces were regenerated with 100 mM HCl following the anti-human INSR modulating antibody injections. Double-referenced data were curve fit with a simple 1:1 binding model using ProteOn™ software to yield kinetic parameters for on-rate (ka) and off-rate (kd). Equilibrium binding constant (KD) values were calculated from a ratio of the kinetic parameters (kdka).

[12] = molecular target: T1, rat insulin receptor (INSR) on CHOK1 …; experiment: flow cytometry on CHOK1 cells expressing the INSR ortholog; IgG, anti-human IgG APC detection
Experimental: as §1

[13] = molecular target: T2, cynomolgus insulin receptor (INSR) on …; experiment: as above
Experimental: as §1

[14] = molecular target: T3, minipig insulin receptor (INSR) on …; experiment: as above
Experimental: as §1

[15] = molecular target: T4, human insulin receptor (INSR) on CHOK1 …; experiment: as above
Experimental: as §1

| Binder | EC50 (nM), pAKT signaling assay [1] [nM] | EC50 (nM), pAKT signaling assay [2] [nM] | EC50 (nM), pAKT signaling assay [3] [nM] | EC50 (nM), pAKT signaling assay [4] [nM] | Kd [5] [nM] | koff [5] [s⁻¹] | kon [5] [M⁻¹ s⁻¹] | EC50 [6] [nM] | EC50 [7] [nM] | EC50 [8] [nM] | EC50 [9] [nM] | EC50, pAKT assay at the EC80 concentration of insulin [10] [nM] | Kd [11] [nM] | koff [11] [s⁻¹] | kon [11] [M⁻¹ s⁻¹] | EC50 [12] [nM] | EC50 [13] [nM] | EC50 [14] [nM] | EC50 [15] [nM] |
| --- | --- | --- | --- | --- | --- | --- | --- | --- | --- | --- | --- | --- | --- | --- | --- | --- | --- | --- | --- |
| XPA.15.247.2.014 Fab (Fab, V domains shown, Fab; also called XPA.15.247.014) VH: EVQLVETGGGVVQPGRSLRLSCAASGFTFSSYAMHWVRQAPGKGLEWVAVISYSGSNKYYADSVKGRFTISRDNSKNTLYLQMNSLRAEDTAVYYCARHEWGFGFDYWGQGTTVTVSS VL: DVVMTQSPLSLPVTLGQPASISCRSSQSLVYGDGNTYLNWFQQRPGQSPRRLIYKVSKRDSGVPDRFSGSGSGTDFTLKISRVEAEDVGVYYCMQGTYWPMTFGGGTKLEIKR | ~15.6 | ~15.1 | 8.4 | 9.6 | 3.7 | 0.000705 | 137000 | 1.7 | 10.2 | 2.9 | 1.8 |  |  |  |  |  |  |  |  |
| XPA.15.247.2.014 IgG (antibody, V domains shown, Tested as IgG; also called XPA.15.247.014) VH: EVQLVETGGGVVQPGRSLRLSCAASGFTFSSYAMHWVRQAPGKGLEWVAVISYSGSNKYYADSVKGRFTISRDNSKNTLYLQMNSLRAEDTAVYYCARHEWGFGFDYWGQGTTVTVSS VL: DVVMTQSPLSLPVTLGQPASISCRSSQSLVYGDGNTYLNWFQQRPGQSPRRLIYKVSKRDSGVPDRFSGSGSGTDFTLKISRVEAEDVGVYYCMQGTYWPMTFGGGTKLEIKR | 4.2 | 1.7 | 2.3 | 2.1 |  |  |  |  |  |  |  |  |  |  |  | 0.7 | 1.1 | 0.9 | 0.7 |

Next, values leading:

| EC50 (nM), pAKT signaling assay [1] [nM] | EC50 (nM), pAKT signaling assay [2] [nM] | EC50 (nM), pAKT signaling assay [3] [nM] | EC50 (nM), pAKT signaling assay [4] [nM] | Kd [5] [nM] | koff [5] [s⁻¹] | kon [5] [M⁻¹ s⁻¹] | EC50 [6] [nM] | EC50 [7] [nM] | EC50 [8] [nM] | EC50 [9] [nM] | EC50, pAKT assay at the EC80 concentration of insulin [10] [nM] | Kd [11] [nM] | koff [11] [s⁻¹] | kon [11] [M⁻¹ s⁻¹] | EC50 [12] [nM] | EC50 [13] [nM] | EC50 [14] [nM] | EC50 [15] [nM] | Binder |
| --- | --- | --- | --- | --- | --- | --- | --- | --- | --- | --- | --- | --- | --- | --- | --- | --- | --- | --- | --- |
| 46.2 | 30.7 | 20.7 | 34.5 |  |  |  |  |  |  |  | 34.7 | 10 | 0.000471 | 38500 | 9.7 | 13.6 | 12 | 8.8 | XPA.15.247 parent antibody (IgG) (antibody, V domains shown, Tested as IgG; also called XPA.15.247 antibody) VH: EVQLVETGGGVVQPGRSLRLSCAASGFTFSSYAMHWVRQAPGKGLEWVAVISYDGSNKYYADSVKGRFTISRDNSKNTLYLQMNSLRAEDTAVYYCARHEWGFGMDVWGQGTTVTVSS VL: DVVMTQSPLSLSVTLGQPASISCRSSLSLVYGDENTYLNWFQQRPGQSPRRLLYKVSDRDSGVPDRFSGSGSGTDFTLKISRVEADDVGVYYCMQGTHWPYTFGQGTKLEIKR |
| 3.1 | 1.3 | 1.7 | 1.5 |  |  |  |  |  |  |  |  |  |  |  | 1.3 | 3.3 | 1.5 | 1 | XPA.15.247.2.011 IgG (antibody, V domains shown, Tested as IgG; also called XPA.15.247.011) VH: EVQLVETGGGVVQPGRSLRLSCAASGFTFSSYAMHWVRQAPGKGLEWVAVISYSGSNKYYADSVKGRFTISRDNSKNTLYLQMNSLRAEDTAVYYCARHEWGFGFDYWGQGTTVTVSS VL: DVVMTQSPLSLPVTLGQPASISCRSSHSLVYGDGNTYLNWFHQRPGQSPRRLIYKVSNRDSGVPDRFAGSGSGTDFTLKISRVEADDFGVFYCMQGTHWPYTFGQGTKLEIKR |
